± gives the standard deviation of the averaged measurements.
System: ATP
Assay: switch fluorescence ratio, 500 uM ATP over buffer (Cy3 cluster intensity, sum of 5 cycles each) (fold (ratio)); higher = stronger signal-on switching upon ATP binding; sequences stand for … in TCGTCGGCAGCGTCAGATGTGTATAAGAGACAGTTTTTTTTTTTTTTTTTTTTTTTTT…TC
Conditions: aptamer strand: ATP DNA aptamer (quencher-CACCTGGGGGAGTATTGCGGAGGAAGG + anchor), 100 nM annealed; ATP concentration: 500 uM
Method in brief: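 Imaging in selection buffer was followed by imaging after 15 min with 500 uM ATP at 22 °C, for Cy3-labelled switching-strand clusters annealed to 100 nM quencher-labelled ATP aptamer on a modified Illumina MiSeq flow-cell. Five of these buffer/ATP cycles ran, separated by NaOH stripping and re-annealing. The fluorescence ratio per cluster is summed target-cycle over summed buffer-cycle Cy3 intensity, averaged per switch-domain sequence; clusters outside 100-1000 RFU were removed.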
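Also: ATP exposure 15 min at 22 °C before imaging.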

TGGGGCAGGG
switch fluorescence ratio: 1.44 ± 0.62

GAATTGGGGG
switch fluorescence ratio: 1.01 ± 0.03

CGATTGCGTG
switch fluorescence ratio: 1 ± 0.05

ATTATGGTTT
switch fluorescence ratio: 1 ± 0.022

ACAGGAGGAG
switch fluorescence ratio: 0.9859 ± 3.2e-05

TTTTTAATCG
switch fluorescence ratio: 1.01 ± 0.032

TTACTAGTTT
switch fluorescence ratio: 0.981 ± 0.02

GCGCGGCTTC
switch fluorescence ratio: 1.03 ± 0.034

TATATAGGGA
switch fluorescence ratio: 0.981 ± 0.026

TTTTTATTG
switch fluorescence ratio: 1.02 ± 0.018

GGGATACCCT
switch fluorescence ratio: 0.9798 ± 0.00069

GTTGGAGTGT
switch fluorescence ratio: 0.9511 ± 0.0068

TCTACGGTGC
switch fluorescence ratio: 1.5 ± 0.24

GTTTGGTAGT
switch fluorescence ratio: 0.979 ± 0.038

GGAGGATTGG
switch fluorescence ratio: 0.958 ± 0.017

TTTTTGGTGC
switch fluorescence ratio: 1.04 ± 0.03

AAATTCCGGG
switch fluorescence ratio: 1.02 ± 0.035

TCACAGATGG
switch fluorescence ratio: 1.02 ± 0.036

AAAACGCGCT
switch fluorescence ratio: 0.965 ± 0.079

AAGGGCCTGC
switch fluorescence ratio: 0.9723 ± 0.0039

TAATTGGGCT
switch fluorescence ratio: 0.975 ± 0.016

ATTACGTACT
switch fluorescence ratio: 1.77 ± 0.11

TGTTAAACGG
switch fluorescence ratio: 1.01 ± 0.039

TCTAGGCCTC
switch fluorescence ratio: 1.019 ± 0.0038

GCGGGCGTTG
switch fluorescence ratio: 0.996 ± 0.053

GGTAGTGTTT
switch fluorescence ratio: 0.998 ± 0.035

GGTATGGGAC
switch fluorescence ratio: 1 ± 0.022

AGTAATTGCG
switch fluorescence ratio: 0.982 ± 0.034

ATATGGGCTG
switch fluorescence ratio: 1.05 ± 0.1

CCTTAGTTTT
switch fluorescence ratio: 0.983 ± 0.022

AAATTCGAAG
switch fluorescence ratio: 0.982 ± 0.011

CGGGTACATG
switch fluorescence ratio: 1.03 ± 0.048

TGCTGGCCAC
switch fluorescence ratio: 1.01 ± 0.013

GGGTTAATCG
switch fluorescence ratio: 1 ± 0.022

CGTGTTGTTG
switch fluorescence ratio: 1.02 ± 0.022

ATTTAAATCT
switch fluorescence ratio: 1.02 ± 0.023

AGATATGGCT
switch fluorescence ratio: 0.979 ± 0.038

GGACGGGATT
switch fluorescence ratio: 1.02 ± 0.068

CACGGCTATG
switch fluorescence ratio: 1.06 ± 0.046

TAAAATGGGG
switch fluorescence ratio: 1 ± 0.022

TTTTTTTGAC
switch fluorescence ratio: 1.01 ± 0.038

AATACGTAGT
switch fluorescence ratio: 1.04 ± 0.078

TTTATAGCGT
switch fluorescence ratio: 0.974 ± 0.038

AGGTAAGGCT
switch fluorescence ratio: 0.976 ± 0.025

CGCTAGGAGG
switch fluorescence ratio: 0.997 ± 0.036

GCTGGTCGCC
switch fluorescence ratio: 1.005 ± 0.01

TTTGGGAATA
switch fluorescence ratio: 1.02 ± 0.02

ACCTCTTATA
switch fluorescence ratio: 1.05 ± 0.014

TTTGAATATT
switch fluorescence ratio: 0.991 ± 0.036

TTACAAATTT
switch fluorescence ratio: 0.9647 ± 0.0066

ACCAATCGGG
switch fluorescence ratio: 0.9917 ± 0.002

GAGAGGCTGC
switch fluorescence ratio: 0.975 ± 0.02

TAGCTGCAAA
switch fluorescence ratio: 1.05 ± 0.024

TCCATCGGGT
switch fluorescence ratio: 1.01 ± 0.038

TTAGGCTGGG
switch fluorescence ratio: 1.02 ± 0.013

AGGGGTGAGT
switch fluorescence ratio: 1.02 ± 0.04

GACCTCAGAC
switch fluorescence ratio: 1.09 ± 0.024

TGACAACAGC
switch fluorescence ratio: 1.049 ± 0.0091

TGTGAGAGGG
switch fluorescence ratio: 1 ± 0.019

TGAGAGTGCG
switch fluorescence ratio: 0.968 ± 0.027

ATTTTAATGG
switch fluorescence ratio: 0.9907 ± 0.0036

TATAAGAAAA
switch fluorescence ratio: 0.978 ± 0.013

CAGTGTGAAG
switch fluorescence ratio: 0.958 ± 0.016

ATGTGCGGGG
switch fluorescence ratio: 0.99 ± 0.019

TTCTGATTAT
switch fluorescence ratio: 1 ± 0.035

GGTACAGTTA
switch fluorescence ratio: 0.985 ± 0.016

ACGGACTTTG
switch fluorescence ratio: 0.941 ± 0.063

TTTTCAGGGG
switch fluorescence ratio: 1.03 ± 0.049

CATATAAACT
switch fluorescence ratio: 1.039 ± 0.0047

CGCGGGTATT
switch fluorescence ratio: 1.02 ± 0.017

TGGTTGAAT
switch fluorescence ratio: 1.01 ± 0.049

CTAGCGGGGG
switch fluorescence ratio: 0.993 ± 0.034

TGGGTTTTTC
switch fluorescence ratio: 0.968 ± 0.03

TGAGGGCCGA
switch fluorescence ratio: 1.02 ± 0.13

CGATCCGCGG
switch fluorescence ratio: 0.942 ± 0.14

TTTGCTACGT
switch fluorescence ratio: 1.01 ± 0.051

TTTGTCGTAT
switch fluorescence ratio: 0.996 ± 0.014

CGATTGTGCG
switch fluorescence ratio: 1.04 ± 0.029

AGGGTTATTT
switch fluorescence ratio: 0.998 ± 0.03

TTTATGATCG
switch fluorescence ratio: 0.977 ± 0.039

TAGGGTTAAT
switch fluorescence ratio: 1.03 ± 0.038

TTGATGCCCA
switch fluorescence ratio: 0.97 ± 0.023

TTTTCCTGAC
switch fluorescence ratio: 1.64 ± 0.25

CCCAAAATGC
switch fluorescence ratio: 2.87 ± 1.5

TTAGTGAGGT
switch fluorescence ratio: 1 ± 0.027

GAACATGGGC
switch fluorescence ratio: 1.012 ± 0.0084

TGGTATTCGC
switch fluorescence ratio: 1.01 ± 0.023

ATTTTTAAGG
switch fluorescence ratio: 0.995 ± 0.021

TCCAGTTATT
switch fluorescence ratio: 1 ± 0.019

TGCTCAGCTG
switch fluorescence ratio: 1.04 ± 0.026

GGGGTAAAGT
switch fluorescence ratio: 1.01 ± 0.028

GGTACACGGG
switch fluorescence ratio: 1.01 ± 0.054

GATCGGGCTG
switch fluorescence ratio: 0.903 ± 0.051

GGAGTACCTG
switch fluorescence ratio: 1.06 ± 0.046

GCTTTCTCGT
switch fluorescence ratio: 1.03 ± 0.029

AGTACGGGGA
switch fluorescence ratio: 1.04 ± 0.053

CTAGCGGCCA
switch fluorescence ratio: 0.991 ± 0.012

GCAACCTGAG
switch fluorescence ratio: 1.56 ± 0.14

CGTGCAAAGG
switch fluorescence ratio: 1.05 ± 0.013

CACGTAAAAA
switch fluorescence ratio: 1.16 ± 0.19

TAATCCGCTT
switch fluorescence ratio: 2.49 ± 0.2

TAATGGGGTC
switch fluorescence ratio: 0.9801 ± 0.0029

TTTAAGGCCT
switch fluorescence ratio: 1 ± 0.021

ACTGGGCCGG
switch fluorescence ratio: 1.04 ± 0.065

ATCAATTGAT
switch fluorescence ratio: 1.01 ± 0.052

TCCTGGCTTT
switch fluorescence ratio: 1.26 ± 0.29

GCATTTCTTC
switch fluorescence ratio: 1.03 ± 0.04

TGGATACTTA
switch fluorescence ratio: 1.02 ± 0.013

GGTACTGGAG
switch fluorescence ratio: 1.04 ± 0.034

ATGTGTGGGG
switch fluorescence ratio: 1.01 ± 0.063

GCTAAAGGGG
switch fluorescence ratio: 1.19 ± 0.31

TTTTAACGCT
switch fluorescence ratio: 1.01 ± 0.039

ATAATTTAAT
switch fluorescence ratio: 0.9986 ± 0.0074

CAAAAAGTAG
switch fluorescence ratio: 1.014 ± 0.0062

CTAAGTATGG
switch fluorescence ratio: 0.9938 ± 0.0096

CGGGCTTCCT
switch fluorescence ratio: 1.21 ± 0.22

TGGCTTACAG
switch fluorescence ratio: 1.003 ± 0.0022

TGTTTACTTT
switch fluorescence ratio: 0.98 ± 0.014

GCTCCCGGGC
switch fluorescence ratio: 1.1 ± 0.041

TTATATGATT
switch fluorescence ratio: 0.997 ± 0.036

TTCGATTACG
switch fluorescence ratio: 1.03 ± 0.018

TTTGGGCATA
switch fluorescence ratio: 1.16 ± 0.19

TTCCTGGTGG
switch fluorescence ratio: 1.05 ± 0.073

CATCGCGGAC
switch fluorescence ratio: 3.88 ± 0.45

CTAATTTACA
switch fluorescence ratio: 1.081 ± 0.0097

ATTGGGGGTG
switch fluorescence ratio: 1.04 ± 0.012

ACTTATTAAT
switch fluorescence ratio: 1.03 ± 0.027

GAGGGAAAAA
switch fluorescence ratio: 1.44 ± 0.88

TGCGCCTTAC
switch fluorescence ratio: 3.37 ± 0.38

GTTAGCTAAT
switch fluorescence ratio: 0.987 ± 0.034

TGTATTCAAT
switch fluorescence ratio: 0.986 ± 0.013

AAGGGGAGTT
switch fluorescence ratio: 0.998 ± 0.028

AGATGAGGCG
switch fluorescence ratio: 1 ± 0.068

GACAATTCTT
switch fluorescence ratio: 1.006 ± 0.0096

GGGGAAAAAG
switch fluorescence ratio: 1.01 ± 0.028

AACTGGGGA
switch fluorescence ratio: 0.967 ± 0.015

TGGGTTGGCG
switch fluorescence ratio: 1.04 ± 0.028

AGGATGGTTG
switch fluorescence ratio: 1 ± 0.021

GGGTAAAGTC
switch fluorescence ratio: 0.994 ± 0.047

GGGAAGAGGG
switch fluorescence ratio: 1 ± 0.016

AAGGGAGGGG
switch fluorescence ratio: 0.987 ± 0.028

TTTCTTCTTT
switch fluorescence ratio: 1.02 ± 0.044

TCGTTCGGCT
switch fluorescence ratio: 1.01 ± 0.044

CGTTATTTAT
switch fluorescence ratio: 0.9985 ± 0.0089

GCATTGGTAT
switch fluorescence ratio: 0.981 ± 0.011

TTTTTAGCGA
switch fluorescence ratio: 1.09 ± 0.058

ATGGAAAGTT
switch fluorescence ratio: 0.99 ± 0.035

GGTCATTATT
switch fluorescence ratio: 0.968 ± 0.057

TTCAATCATG
switch fluorescence ratio: 0.988 ± 0.011

AAGATAGAAA
switch fluorescence ratio: 1.01 ± 0.013

TTATGATTTG
switch fluorescence ratio: 1.02 ± 0.02

TTAGCTATCT
switch fluorescence ratio: 1.04 ± 0.021

GTTTCAAACG
switch fluorescence ratio: 0.971 ± 0.025

TCTACTGGGT
switch fluorescence ratio: 0.993 ± 0.033

AGGAGTTTAG
switch fluorescence ratio: 0.9867 ± 0.0093

AGTGGGGCCA
switch fluorescence ratio: 1.03 ± 0.044

GAACGGGAAT
switch fluorescence ratio: 1.022 ± 0.00076
